Measurements as given in article doi:10.64898/2025.12.03.692134 (bioRxiv, 2025).

T1: Torpedo nicotinic acetylcholine receptor δ subunit (Tetronarce californica (Pacific …, UniProt P02718 22-522))
T1 sequence: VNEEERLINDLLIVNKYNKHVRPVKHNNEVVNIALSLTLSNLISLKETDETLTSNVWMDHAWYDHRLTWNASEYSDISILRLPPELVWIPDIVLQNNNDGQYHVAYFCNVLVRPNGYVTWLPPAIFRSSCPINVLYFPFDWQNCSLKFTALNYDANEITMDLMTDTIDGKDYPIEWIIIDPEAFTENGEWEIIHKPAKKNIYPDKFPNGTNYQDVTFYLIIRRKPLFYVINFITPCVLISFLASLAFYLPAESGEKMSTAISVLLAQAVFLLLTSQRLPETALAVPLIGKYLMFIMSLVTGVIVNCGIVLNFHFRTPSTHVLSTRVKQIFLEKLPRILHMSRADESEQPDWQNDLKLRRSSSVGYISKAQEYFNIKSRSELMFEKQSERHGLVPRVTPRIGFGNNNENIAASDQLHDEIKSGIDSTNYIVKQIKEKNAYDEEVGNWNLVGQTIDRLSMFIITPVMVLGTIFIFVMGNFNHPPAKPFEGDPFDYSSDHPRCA

B1: Torpedo nicotinic acetylcholine receptor β subunit (receptor)
chain: SVMEDTLLSVLFETYNPKVRPAQTVGDKVTVRVGLTLTNLLILNEKIEEMTTNVFLNLAWTDYRLQWDPAAYEGIKDLRIPSSDVWQPDIVLMNNNDGSFEITLHVNVLVQHTGAVSWQPSAIYRSSCTIKVMYFPFDWQNCTMVFKSYTYDTSEVTLQHALDAKGEREVKEIVINKDAFTENGQWSIEHKPSRKNWRSDDPSYEDVTFYLIIQRKPLFYIVYTIIPCILISILAILVFYLPPDAGEKMSLSISALLAVTVFLLLLADKVPETSLSVPIIIRYLMFIMILVAFSVILSVVVLNLHHRSPNTHTMPNWIRQIFIETLPPFLWIQRPVTTPSPDSKPTIISRANDEYFIRKPAGDFVCPVDNARVAVQPERLFSEMKWHLNGLTQPVTLPQDLKEAVEAIKYIAEQLESASEFDDLKKDWQYVAMVADRLFLYVFFVICSIGTFSIFLDASHNVPPDNPFA
B2: Torpedo nicotinic acetylcholine receptor α subunit (receptor)
chain: SEHETRLVANLLENYNKVIRPVEHHTHFVDITVGLQLIQLISVDEVNQIVETNVRLRQQWIDVRLRWNPADYGGIKKIRLPSDDVWLPDLVLYNNADGDFAIVHMTKLLLDYTGKIMWTPPAIFKSYCEIIVTHFPFDQQNCTMKLGIWTYDGTKVSISPESDRPDLSTFMESGEWVMKDYRGWKHWVYYTCCPDTPYLDITYHFIMQRIPLYFVVNVIIPCLLFSFLTGLVFYLPTDSGEKMTLSISVLLSLTVFLLVIVELIPSTSSAVPLIGKYMLFTMIFVISSIIITVVVINTHHRSPSTHTMPQWVRKIFIDTIPNVMFFSTMKRASKEKQENKIFADDIDISDISGKQVTGEVIFQTPLIKNPDVKSAIEGVKYIAEHMKSDEESSNAAEEWKYVAMVIDHILLCVFMLICIIGTVSVFAGRLIELSQEG

Key:
[1] = biological target: T1, Torpedo nicotinic acetylcholine …; assay: cryo-EM structure
[2] = biological target: B1; assay: cryo-EM structure

Binder	binding result [1]	binding result [2]
B1	binds	–
B2	–	binds
